From US20080207540, “Method For the Identification of Compounds Modulating Reverse Transport of Cholesterol” (Genfit, published 2008) come the findings set out here.

Series [1] addresses T1, LRH-1 (hLRH-1, NR5A2) (Homo sapiens, UniProt O00482 O00482:1-541). As to the kind of experiment: EMSA; no complex. The conditions noted are these: tags: none stated; TNT-T7 rabbit reticulocyte lysate, vector pCI-hLRH-1; label: 32P. On the procedure: (§1) 2 μl of rabbit reticulocyte lysate programmed by hLRH-1 were incubated for 15 minutes at room temperature in a final volume of 20 μl of buffer containing 10 mM HEPES, 2.5 mM MgCl₂, 10% glycerol, 2.5 mg/ml BSA, 50 mM NaCl and 0.5 mM DTT with 2.5 μg of polydl-dC and 1 μg of herring sperm DNA in the presence of the labelled double-stranded oligonucleotides (0.5 ng). The complexes were then separated by non-denaturing gel electrophoresis in TBE 0.25X buffer.
(§2) In contrast, no complex was detected in the presence of labelled double-stranded oligonucleotide corresponding to the mutated response element (hCyp7a mut). […] On the other hand, a specific LRH-1/DNA complex formed with a labelled double-stranded oligonucleotide corresponding to fragment −144/−122 (LRHRE_ApoA1_h_{—}7) of the human apo AI gene promoter. Said fragment straddles regions B and C of the human apo AI promoter and contains, on the antisense strand, the sequence TCAAGGATC similar to the consensus sequence TCAAGGTCA of an LRH-1 response element.
(In EMSA bound probe runs differently from free probe, usually more slowly.)

For series [2], the target named is T1, LRH-1 (hLRH-1, NR5A2). Kind of series: EMSA; no complex; no displacement as competitor (FIG. 4A). The note with it: tags: none stated; TNT-T7 rabbit reticulocyte lysate, vector pCI-hLRH-1; label: 32P. As to the method: as §1, §2
In series [3] the target is T2, FXR (UniProt Q96RI1 Q96RI1:1-486).
T2 sequence: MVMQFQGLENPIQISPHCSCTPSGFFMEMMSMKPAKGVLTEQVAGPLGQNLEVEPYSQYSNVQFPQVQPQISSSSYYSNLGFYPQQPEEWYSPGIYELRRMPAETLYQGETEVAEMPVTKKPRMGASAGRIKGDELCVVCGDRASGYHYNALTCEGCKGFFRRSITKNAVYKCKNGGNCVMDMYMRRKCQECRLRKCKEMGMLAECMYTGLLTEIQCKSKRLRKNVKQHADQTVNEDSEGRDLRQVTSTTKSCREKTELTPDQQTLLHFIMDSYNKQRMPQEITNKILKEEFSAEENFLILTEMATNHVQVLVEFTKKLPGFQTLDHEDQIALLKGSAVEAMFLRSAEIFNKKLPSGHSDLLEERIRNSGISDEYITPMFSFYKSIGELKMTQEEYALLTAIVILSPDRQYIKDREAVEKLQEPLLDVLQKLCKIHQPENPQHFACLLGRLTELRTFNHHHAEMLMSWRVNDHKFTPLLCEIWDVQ
As to the kind of experiment: EMSA; no complex. The note with it: tags: none stated; TNT-T7 rabbit reticulocyte lysate, vector pCDNA3-FXR; label: 32P.

Series [4] concerns the target T1, LRH-1 (hLRH-1, NR5A2). As to the kind of experiment: EMSA; no complex; also no displacement as competitor (FIG. 4B). The note with it: tags: none stated; TNT-T7 rabbit reticulocyte lysate, vector pCI-hLRH-1; label: 32P. On the procedure:
as §1, §2

Series [5] deals with T1, LRH-1 (hLRH-1, NR5A2). Kind of series: EMSA; 2.5 mM MgCl2, 50 mM NaCl, room temperature; higher affinity than apo AI -144/-122 by competition (Example 4). The note with it: tags: none stated; TNT-T7 rabbit reticulocyte lysate, vector pCI-hLRH-1; label: 32P. On the procedure: as §1, §2
For series [6], the target named is T1, LRH-1 (hLRH-1, NR5A2). Kind of series: EMSA; specific complex; low affinity site, as competitor only partially displaces Cyp7a probe (FIG. 4A). The note with it: tags: none stated; TNT-T7 rabbit reticulocyte lysate, vector pCI-hLRH-1; label: 32P. As to the method:
as §1, §2

In series [7] the target is T1, LRH-1 (hLRH-1, NR5A2). As to the kind of experiment: EMSA; specific complex. The note with it: tags: none stated; TNT-T7 rabbit reticulocyte lysate, vector pCI-hLRH-1; label: 32P.
For series [8], the target named is T2, FXR. As to the kind of experiment: EMSA; specific complex. The note with it: tags: none stated; TNT-T7 rabbit reticulocyte lysate, vector pCDNA3-FXR; label: 32P.
The target in series [9] is T2, FXR. As to the kind of experiment: EMSA; complex lost. The conditions noted are these: tags: none stated; TNT-T7 rabbit reticulocyte lysate, vector pCDNA3-FXR; label: 32P.
The target of series [10] is T1, LRH-1 (hLRH-1, NR5A2). Kind of series: EMSA; FXR site mutation does not affect LRH-1 binding. The conditions noted are these: tags: none stated; TNT-T7 rabbit reticulocyte lysate, vector pCI-hLRH-1; label: 32P.

T1 sequence (O00482 whole entry, one chain of several): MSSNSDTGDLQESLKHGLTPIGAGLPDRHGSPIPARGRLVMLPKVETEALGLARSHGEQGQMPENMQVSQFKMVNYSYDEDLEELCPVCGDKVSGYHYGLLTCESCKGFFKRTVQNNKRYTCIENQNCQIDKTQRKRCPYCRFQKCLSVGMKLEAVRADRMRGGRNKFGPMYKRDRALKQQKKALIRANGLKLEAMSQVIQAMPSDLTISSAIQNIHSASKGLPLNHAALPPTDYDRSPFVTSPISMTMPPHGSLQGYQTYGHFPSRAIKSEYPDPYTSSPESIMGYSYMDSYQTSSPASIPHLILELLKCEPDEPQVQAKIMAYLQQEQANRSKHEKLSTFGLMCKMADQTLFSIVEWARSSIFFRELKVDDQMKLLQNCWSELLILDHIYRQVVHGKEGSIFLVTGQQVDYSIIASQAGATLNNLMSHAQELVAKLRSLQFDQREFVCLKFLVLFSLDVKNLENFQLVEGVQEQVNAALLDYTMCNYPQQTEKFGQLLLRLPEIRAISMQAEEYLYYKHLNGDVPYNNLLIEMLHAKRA

B1: LRHRE_ApoA1_h_5 (-191/-171) (dsDNA)
DNA 1: GATCCGCAGCCCCCGCAGCTTGCTGTA
DNA 2: GATCTACAGCAAGCTGCGGGGGCTGCG
On to B1, for which the binding result in series [1] is listed as “no binding”.

B2: LRHRE_ApoA1_h_8 (-180/-158) (dsDNA)
DNA 1: GATCCAGCTTGCTGTTTGCCCACTCTATA
DNA 2: GATCTATAGAGTGGGCAAACAGCAAGCTG
As to B2, the binding result in series [1] is recorded as “no binding”.

B3: LRHRE_ApoA1 mut (dsDNA)
DNA 1: GATCCGGGACAGAGCTGATTGTTGAACTA
DNA 2: GATCTAGTTCAACAATCAGCTCTGTCCCG
On to B3, for which the binding result in [2] and in series [3] was “no binding” in each case.

B4: hCyp7a mut (dsDNA)
DNA 1: GATCTCTTAGTTCAATTCCAGTTAG
DNA 2: GATCCTAACTGGAATTGAACTAAGA
For B4, the binding result in [4] was “no binding”.

B5: hCyp7a wt (dsDNA)
DNA 1: GATCTCTTAGTTCAAGGCCAGTTAG
DNA 2: GATCCTAACTGGCCTTGAACTAAGA
Consider B5, for which the binding result in series [5] is “binds”.

B6: LRHRE_ApoA1_h_7 (-144/-122) (dsDNA)
DNA 1: GATCCGGGACAGAGCTGATCCTTGAACTA
DNA 2: GATCTAGTTCAAGGATCAGCTCTGTCCCG
As for B6, the binding result is listed as “binds” in [6] and “no binding” in [3].

B7: FXRRE_ApoA1_h_1 (dsDNA)
DNA 1: CAGAGCTGATCCTTGAACTCTTAAGTT
DNA 2: AACTTAAGAGTTCAAGGATCAGCTCTG
As to B7, the binding result in [7] and in [8] was “binds” throughout.

B8: FXRRE_ApoA1_h_1_mut (dsDNA)
DNA 1: CAGAGCTGATCCTTGAAGTGTTAAGTT
DNA 2: AACTTAACACTTCAAGGATCAGCTCTG
With B8, the binding result in series [9] is given as “no binding”; in series [10], “binds”.

B9: LRHRE_ApoA1_h_6 (-178/-145) (dsDNA)
DNA 1: GATCCTTGCCCACTCTATTTGCCCAGCCCCAA
DNA 2: GATCTTGGGGCTGGGCAAATAGAGTGGGCAAG
As to B9, the binding result in series [1] is “no binding”.
